According to the RNAGym collection of RNA variant scans (doi:10.7554/elife.80360):

B1: Twister Ribozyme (parent)
chain: AACACUGCCAAUGCCGGUCCCAAGCCCGGAUAAAAGUGGAGGGGGCGG

Variants of: B1
Assay: self-cleavage, relative activity (ratio to wild type); higher = more cleavage; co-transcriptional

First: G13C G47A
Second: G13C G47C
The self-cleavage of the first is lower: 0.154 for the first, 0.179 for the second.

Compared with G13C G47U, G13C U18A is lower in self-cleavage: 0.145 for the first, 0.067 for the second.

Going from G13C U18G to G13C U31A, the self-cleavage rises from 0.0609 to 0.767.

Going from G13C U31G to G13C U37C, the self-cleavage falls from 0.585 to 0.116.

Going from G13C U37G to G13U, the self-cleavage rises from 0.125 to 0.801.

First: G13U A22G
Second: G13U A22U
The self-cleavage of the first is lower: 0.098 for the first, 0.174 for the second.

Compared with G13U A23C, G13U A23U is higher in self-cleavage: 0.0557 for the first, 0.0818 for the second.

Compared with G13U A30U, G13U A32G is lower in self-cleavage: 0.749 for the first, 0.354 for the second.

Going from G13U A32U to G13U A33G, the self-cleavage rises from 0.489 to 0.68.

First: G13U A33U
Second: G13U A34G
The self-cleavage of the first is higher: 0.403 for the first, 0.211 for the second.

First: G13U A35G
Second: G13U A40G
The self-cleavage of the first is lower: 0.127 for the first, 0.152 for the second.

First: G13U C14U
Second: G13U C19G
The self-cleavage of the first is higher: 0.635 for the first, 0.0472 for the second.

Going from G13U C20U to G13U C21A, the self-cleavage falls from 0.134 to 0.0794.

First: G13U C21G
Second: G13U C25A
The self-cleavage of the first is lower: 0.0567 for the first, 0.0642 for the second.

G13U C25U and G13U C26A are the same in self-cleavage: 0.129 for the first, 0.129 for the second.

First: G13U C27A
Second: G13U C27G
The self-cleavage of the first is lower: 0.0958 for the first, 0.0965 for the second.

Compared with G13U C27U, G13U C46A is higher in self-cleavage: 0.212 for the first, 0.361 for the second.

Going from G13U C46G to G13U C46U, the self-cleavage rises from 0.328 to 0.586.

First: G13U G16C
Second: G13U G16U
The self-cleavage of the first is lower: 0.094 for the first, 0.253 for the second.

First: G13U G17C
Second: G13U G24A
The self-cleavage of the first is lower: 0.0903 for the first, 0.0906 for the second.

Compared with G13U G24U, G13U G28C is higher in self-cleavage: 0.0911 for the first, 0.405 for the second.

Going from G13U G29C to G13U G29U, the self-cleavage rises from 0.555 to 0.588.

Compared with G13U G36U, G13U G38A is higher in self-cleavage: 0.107 for the first, 0.226 for the second.

Compared with G13U G39A, G13U G41C is higher in self-cleavage: 0.113 for the first, 0.149 for the second.

First: G13U G42A
Second: G13U G42C
The self-cleavage of the first is lower: 0.139 for the first, 0.181 for the second.

Going from G13U G42U to G13U G43C, the self-cleavage rises from 0.114 to 0.137.

First: G13U G43U
Second: G13U G44A
The self-cleavage of the first is lower: 0.155 for the first, 0.821 for the second.

Compared with G13U G44U, G13U G45C is lower in self-cleavage: 0.428 for the first, 0.194 for the second.

First: G13U G45U
Second: G13U G47A
The self-cleavage of the first is lower: 0.212 for the first, 0.228 for the second.

First: G13U G47C
Second: G13U G48A
The self-cleavage of the first is lower: 0.179 for the first, 0.309 for the second.

First: G13U G48U
Second: G13U U31A
The self-cleavage of the first is lower: 0.357 for the first, 0.43 for the second.

First: G13U U31G
Second: G13U U37C
The self-cleavage of the first is higher: 0.667 for the first, 0.133 for the second.

Going from C14A to C14A A23C, the self-cleavage falls from 0.923 to 0.348.

Going from C14A A30C to C14A A30G, the self-cleavage falls from 0.819 to 0.803.

Going from C14A A32C to C14A A32U, the self-cleavage falls from 0.914 to 0.848.

First: C14A A33C
Second: C14A A33G
The self-cleavage of the first is higher: 0.884 for the first, 0.84 for the second.

First: C14A A34U
Second: C14A A35G
The self-cleavage of the first is higher: 0.866 for the first, 0.718 for the second.

Going from C14A A40C to C14A A40G, the self-cleavage falls from 0.189 to 0.136.

First: C14A C19A
Second: C14A C19G
The self-cleavage of the first is higher: 0.366 for the first, 0.359 for the second.

Compared with C14A C19U, C14A C20A is lower in self-cleavage: 1.07 for the first, 0.165 for the second.

First: C14A C20G
Second: C14A C21A
The self-cleavage of the first is lower: 0.126 for the first, 0.128 for the second.

Going from C14A C21G to C14A C26A, the self-cleavage rises from 0.1 to 0.38.

First: C14A C26U
Second: C14A C27A
The self-cleavage of the first is lower: 0.247 for the first, 0.31 for the second.

Going from C14A C27G to C14A C46G, the self-cleavage rises from 0.0739 to 0.87.

Going from C14A G16C to C14A G17A, the self-cleavage rises from 0.0948 to 0.457.

Going from C14A G17C to C14A G24A, the self-cleavage rises from 0.12 to 0.18.

First: C14A G24C
Second: C14A G24U
The self-cleavage of the first is lower: 0.0765 for the first, 0.146 for the second.

First: C14A G38U
Second: C14A G39A
The self-cleavage of the first is higher: 0.676 for the first, 0.409 for the second.

Going from C14A G41C to C14A G42A, the self-cleavage rises from 0.294 to 0.417.

Compared with C14A G42C, C14A G42U is higher in self-cleavage: 0.363 for the first, 0.368 for the second.

First: C14A G43A
Second: C14A G43C
The self-cleavage of the first is higher: 0.309 for the first, 0.182 for the second.

Compared with C14A G44A, C14A G44C is lower in self-cleavage: 0.838 for the first, 0.772 for the second.

First: C14A G45A
Second: C14A G45C
The self-cleavage of the first is higher: 0.801 for the first, 0.58 for the second.

Compared with C14A G47A, C14A G47U is lower in self-cleavage: 0.749 for the first, 0.66 for the second.

First: C14A G48C
Second: C14A U31A
The self-cleavage of the first is higher: 1.04 for the first, 0.796 for the second.

Going from C14A U37A to C14G, the self-cleavage falls from 0.711 to 0.171.

First: C14G A22C
Second: C14G A22U
The self-cleavage of the first is higher: 0.372 for the first, 0.128 for the second.

Compared with C14G A23G, C14G A30C is higher in self-cleavage: 0.103 for the first, 0.16 for the second.

Compared with C14G A30G, C14G A32U is higher in self-cleavage: 0.122 for the first, 0.184 for the second.

Going from C14G A33C to C14G A33G, the self-cleavage falls from 0.176 to 0.0896.

Going from C14G A34G to C14G A35C, the self-cleavage rises from 0.182 to 0.244.

Going from C14G A35G to C14G A40C, the self-cleavage falls from 0.138 to 0.067.

Going from C14G A40G to C14G A40U, the self-cleavage falls from 0.0712 to 0.0589.

Going from C14G C15A to C14G C15G, the self-cleavage falls from 0.644 to 0.243.

First: C14G C19A
Second: C14G C19G
The self-cleavage of the first is lower: 0.0588 for the first, 0.078 for the second.

First: C14G C20A
Second: C14G C21A
The self-cleavage of the first is higher: 0.104 for the first, 0.0482 for the second.

Going from C14G C21G to C14G C25G, the self-cleavage rises from 0.0402 to 0.0771.

Going from C14G C25U to C14G C26A, the self-cleavage rises from 0.0566 to 0.0764.

Compared with C14G C26G, C14G C27A is higher in self-cleavage: 0.0666 for the first, 0.0743 for the second.

C14G C27G and C14G C27U are the same in self-cleavage: 0.0942 for the first, 0.0942 for the second.

Going from C14G C46A to C14G G16A, the self-cleavage rises from 0.078 to 0.0993.

First: C14G G16C
Second: C14G G17U
The self-cleavage of the first is higher: 0.143 for the first, 0.101 for the second.

Compared with C14G G24A, C14G G24U is higher in self-cleavage: 0.0254 for the first, 0.0521 for the second.

Going from C14G G28U to C14G G29A, the self-cleavage rises from 0.157 to 0.182.

Going from C14G G38A to C14G G39A, the self-cleavage falls from 0.127 to 0.0534.

Going from C14G G39C to C14G G39U, the self-cleavage rises from 0.0468 to 0.0771.

Compared with C14G G41A, C14G G42C is lower in self-cleavage: 0.103 for the first, 0.095 for the second.

First: C14G G43A
Second: C14G G44A
The self-cleavage of the first is lower: 0.0789 for the first, 0.174 for the second.

Going from C14G G44U to C14G G45A, the self-cleavage falls from 0.125 to 0.113.

Going from C14G G45C to C14G G45U, the self-cleavage rises from 0.0594 to 0.101.

Going from C14G G47C to C14G G47U, the self-cleavage rises from 0.0728 to 0.0804.

Going from C14G G48A to C14G G48C, the self-cleavage rises from 0.0949 to 0.163.

Going from C14G U18A to C14G U18C, the self-cleavage rises from 0.0727 to 0.074.

C14G U18G gave a self-cleavage of 0.0282.
